From the DeepSol protein solubility set

assay: soluble on expression in E. coli; label from the status in PepcDB or PDB records

Sequence | soluble on expression in E. coli
MSLIDAEHIEIALDKRYLRESYLPERALDDILDGQVIIETQGEQVGQVNGLTVIEVTGHPMPYGEPARISCVIHFGDGDIADVERKVELGGNLHAKGMMIMQAFVSSALNLDGSLPFSASIVFEQSYSEVDGDSASLAELCSLVSALSEYPIDQQIAVTGAVDQFGRVQAVGGLNEKIEGFYRVCCHQGLTGEQGVILPSSNLKHLALHKSVVESIKNGEFNIWPVSTVDEAIPLLMGKPFRGEDEDSVIAKIAERIDNFEKLVEGHHHHHH | soluble
MISVFDIYKIGVGPSSSHTVGPMKAGKEFIDDLRAMGKLRDITKITVDVYGSLSLTGKGHHTDIAIIMGLAGNSPEKVDIDSIPGFIARVEETERLPVGMHCHTVSFPREGGMNFHKTNLELHENGMQIHAWIDDEKVYSKTYYSIGGGFIVDEENFGK | not soluble
MFTATEAVPVAKVVAGNKRYPGVVALDNVNFTLNKGEVRALLGKNGAGKSTLIRMLTGSERPDSGDIWIGETRLEGDEATLTRRAAELGVRAVYQELSLVEGLTVAENLCLGQWPRRNGMIDYLQMAQDAQRCLQALGVDVSPEQLVSTLSPAQKQLVEIARVMKGEPRVVILDEPTSSLASAEVELVISAVKKMSALGVAVIYVSHRMEEIRRIASCATVMRDGQVAGDVMLENTSTHHIVSLMLGRDHVDIAPVAPQEIVDQAVLEVRALRHKPKLEDISFTLRRGEVLGIAGLLGAGRSELLKAIVGLEEYEQGEIVINGEKITRPDYGDMLKRGIGYTPENRKEAGIIPWLGVDENTVLTNRQKISANGVLQWSTIRRLTEEVMQRMTVKAASSETPIGTLSGGNQQKVVIGRWVYAASQILLLDEPTRGVDIEAKQQIYRIVRELAAEGKSVVFISSEVEELPLVCDRILLLQHGTFSQEFHAPVNVDELMSAILSVH | soluble
KPGFQLGVTVDYEIGKHWMLMSGLSWLQNRSTMKMMDHMVTYFPKTEIKMNNLILPLKMGYNIRVSDKLSLIPSVGVYASYGFGAGNCSLDVIHQEGDNITTEPAKWKPLDGFSYKAGEPNNSGNLQAFRRWDYGGIVGMKAVIADHYTISFDYRVGIKKIQAQNGLRNSTFQFSVGYRF | not soluble
FSNAPISAEEQMIRAFVKSVEYMSPRKIGALVAIQRVRTLQEYISTGIPLDAKISAELLINIFIPNTPLHDGAVIIKEERIAVTSAYLPLTKNTGISKEFGTRHRAAIGLSEVSDALTFVVSEETGGISITYNGRFKHNL | not soluble
MGSDKIHHHHHHMLFLSGLLGVSAQRVALKNNLLYDATLTPNLALEIGVGPKMTVDLLGGVNPFKISDDHYWKHWLAQPELRYWFCEKFNGVCIGLHGHVGQMNIAGISVPPVGSIHPKSDFDDARYHRYQGWFYGGGISIGRQWILGNHWNLEASIGGGYIHFDYDKYQCVECGKKVGVDKKADYFGLTRATLSLIYLFK | not soluble
MTASIFSGVIPALMTPCRQDRTPDFDALVRKGKELIADGMSAVVYCGSMGDWPLLTDEQRMEGVERLVKAGIPVIVGTGAVNTASAVAHAVHAQKVGAKGLMVIPRVLSRGSVIAAQKAHFKAILSAAPEIPAVIYNSPYYGFATRADLFFALRAEHKNLVGFKEFGGPADMRYAAENITSRDDEVTLMIGVDTAVVHGFVNCGATGAITGIGNVLPKEVIHLCKLSQAAAKGDADARARALELEQALAVLSSFDEGPDLVLYFKYMMVLKGDKEYTLHFNETDALTDSQRGYVEAQFKLFNSWYADWSKLPGAVQTCKAA | soluble
MGSDKIHHHHHHMLVASLVLLGLYDLFQAKHSILRNFPVIGHMRYLLEMIGPELHQYFVESDTDGKPINKNHRNYIYERAKEQNQTRPFGTQLNVYDDNYKWMQHSIYPAKKMDTPPRVVIGGKDCQQPYSASLFNISAMSFGALSKNAIQALNLGAKAGEFFHDTGEGGISEYHLQGGDLVWEIGTGYFGCRTGNGCFDAEKFKQKANWE | not soluble
GPGSMAVAAAAAAQTVAPRPPMQIGRADIAQMVASNPHVPTFSLPMNRQLEREFRTFRPVLIIAPLSTLPHWASEFQRFSRRHTAAAVSPCPGGVDAAERFTVYVLNGPRSERESRMGELLAHVERLTQQPPTPGGASGATPATPVVVIPHDMLTKPLRGALRQIRRVDWQVVAIDEAQRIKCARSFLFKKVCGLHSVSRRVLTGHTVADQHDGALPCSCAFRHRTRSSRVSCLSSWIAHCSPQVGRARWRIASCASSCAAVLIDFRCRSSCGVRGAS | soluble
MSKPIQMERGVKYRDADKMALIPIKNMPTEQKEVLRKPEWMKIKLPADSQRIQDIKAAMRKNNLHSVCEEASCPNLAECFNHGTATFMILGAICTRRCPFCDVAHGRPNAPEAEEPKKLAQTIHDMKLKYVVITSVDRDDLRDGGAQHFADCNREIRALNPHIKIETLVPDFRGRMEVALEALKDNPPDVFNHNLETAPRLYRKVRPGANYKWSLELLRQFKEQHPHVPTKSGLMMGLGETKEEIVEVLKDLRAHGVTMLTLGQYLAPSRHHLPVERYVPPAEFDELKEVALELGFTHAACGPFVRSSYHADLQAKGLEVK | not soluble
MGSDKIHHHHHHMVYVNANVDTKVDNRKDNCDNTNTYSHTVDRKDNFDNTTTNTKTVNRNDNCNNQEEGDVNMYRRNDNCNNREATNSRSANYSIHNQGMINCYNGIAIDNRAFNSSGANTMAGTEFLRAFLDAPMSVMPGSRKNAIMDRQEGSTQPAIRYNNR | not soluble
MGDKGTRVFKKASPNGKLTVYLGKRDFVDHIDLVEPVDGVVLVDPEYLKERRVYVTLTCAFRYGREDLDVLGLTFRKDLFVANVQSFPPAPEDKKPLTRLQERLIKKLGEHAYPFTFEIPPNLPCSVTLQPGPEDTGKACGVDYEVKAFCAENLEEKIHKRNSVRLVIRKVQYAPERPGPQPTAETTRQFLMSDKPLHLEASLDKEIYYHGEPISVNVHVTNNTNKTVKKIKISVRQYADICLFNTAQYKCPVAMEEADDTVAPSSTFCKVYTLTPFLANNREKRGLALDGKLKHEDTNLASSTLLREGANREILGIIVSYKVKVKLVVSRGGLLGDLASSDVAVELPFTLMHPKPKEEPPHREVPEHETPVDTNLIELDTNDDDIVFEDFARQRLKGMKDDKEEEEDGTGSPRLNDR | soluble
MDIDYTVGEVELSYKPKFKNIYKVVSSEDAYKYLLPTYKEGTICYKEYFKVLFLNQASQVLGYTLISEGGITDTTVDVRVILQAALLTNSVAIILAHNHPSGSMKPSRQDMEITKQVKEAARLMRITVTDHLILTDAGYYSFADEGEL | not soluble
MAANSTRRPIIAFMSDLGTTDDSVAQCKGLMYSICPDVTVVDVCHSMTPWDVEEGARYIVDLPRFFPEGTVFATTTYPATGTTTRSVAVRIKQAAKGGARGQWAGSGAGFERAEGSYIYIAPNNGLLTTVLEEHGYLEAYEVTSPKVIPEQPEPTFYAREMVAIPSAHLAAGFPLSEVGRPLEDHEIVRFNRPAVEQDGEALVGVVSAIDHPFGNVWTNIHRTDLEKAGIGYGARLRLTLDGVLPFEAPLTPTFADAGEIGNIAIYLNSRGYLSIARNAASLAYPYHLKEGMSARVEAR | soluble
SDIAIHHPWIRRPFFPFHSPSRLFDQFFGEHLLESDLFPTSTSLSPFYLRPPSFLRAPSWFDTGLSEMRLEKDRFSVNLDVKHFSPEELKVKVLGDVIEVHGKHEERQDEHGFISREFHRKYRIPADVDPLTITSSLSSDGVLTVNGPRKQVSGPERTIPITREEKPAVTAAPKK | soluble
MMSLVIAFISCSKSDEDKVIKEENPKITSDTFSAVIKDGFTGENGEDLILYKNLKNIVVGDYIPYDITIKDEDSANTKYILTPTRIGEKNHQYFQIDYDVYLDNDKGEKVRVNAITFDKIGKHRFYIKPLVPGTFKLSFVLQREQNGQKVQDIKFPTLNFNVVKITVYKTQIFIGLYEVRFYIEDGENETDIYLSPDPSVKQTFVSKYNDMTYTGDFNVKEFCKVGYYSSTIKTITSITIIQKREGEEEYRIEYYNIPIP | not soluble
MAHHHHHHMGNKLCCINNDLQNSKSSIDIYKYDPREIYGDYDDWTLESWIDKYKNGNSIKVAFPDGNEIQCHFKIFLKERCFELSLDNKVRVIKFNDINCILHRNSCESLLESEQNLLKSPKVIGIRLISTLKAIAFAMDSPGEARMFYEFIEKYCLNG | not soluble
SARLADYFIVVGYDHEKPGSGEGLGKIIQRFPQKDWDDTPFPQGIELFCQPGGWQLSRERKQPTFFVVVLTDIDSDRHYCSCLTFYEAEINLQGTKKEEIEGEAKVSGLIQPAEVFAPKSLVLVSRLYYPEIFRACLGLIYTVYVDSLNVSLESLIANLCACLVPAAGGSQKLFSLGAGDRQLIQTPLHDSLPITGTSVALLFQQLGTVAHACNLSTLGGRGGQLTRSGDRDHPG | soluble
MGSDKIHHHHHHMGHATEIQVLVVDESAPSRAFIASTLENGGYIVTSVASGEEAVHEVNAAPFDILVTDINLPGMSGLNLLKLLKDSFPDLEVVIVTSNASSFTAIKALRLGAYDFIIKPVDDPAILTNIVGRAVEKQSLTRENRRLMDDMKLKNRELHDALHLMKSANRLCTAISASLDAGEILKRLVEGAVEEVKAKKGYLLLLDRDGSSFSMKVSVGVSRTLAKGFRLRHDQGIAGLVATNNKPLRIDEEVPPPLTHRMLEEDPNGELFTTPGIVTVPLQFKGRVAGVVTLSGRADGRAFTDAEIEFLTTLANHSAIALDTAGAFYKLRKGTS | not soluble
VTSPLLPQIGVDPPERGDAARNRRLLLDAAALLVAERGVDAVTMDAVACRAGVGKGTVFRRFGSRSGLMHALLDHTERELQQSFMFGPPPLGPGADPIDRLIAYGHARIAIVEVQGEVQRAAENSVEFRFAAPARAVSVRHVVSLLRAAGVRCDHELLACSLLAPLEATLVLHELRDLGMSVERLGAAWEDLIRRVTRC | not soluble
LSYPNATESVYGLTRYSTNDEAIAGVNNESSITPAKFTVALNNVFETRVSTESSNGVIKISSLPQALAGADDTTAMTPLKTQQLAVKLIAQIAPSKNAATESEQGVIQLATVAQARQGTLREGYAISPYTFMNSTATEEYKGVIKLGTQSEVNSNNASVAVTGATLNGRGSTTSMRGVVKLTTTAGSQSGGDASSALAWNADVIHQRGGQTINGTLRINNTLTIASGGANITGTVNMTGGYIQGKRVVTQNEIDRTIPVGAIMMWAADSLPSDAWRFCHGGTVSASDCPLYASRIGTRYGGSSSNPGLPDMR | soluble
MPLSAQQLAAQKNLSYVLAEKLAQRILKGDYAPGTILPGEIELGEQYGVSRTAVREAVKTLTAKGMVLPRPRIGTRVMPQGNWNFLDQELLTWWMTEENFHQVVEHFLVMRISLEPQACLLAATLGTPEQKARLNALMEEMVALKKHFKRERWIEVDMAWHEHIYEMSANPFLISFATLFHSVYHTYFTSITYNEVVKLDLHQAIVDAIADGDGERAFQACQALLIAPNERPDN | not soluble
SRNFSVFERFSKAFKDHPSLTRILVVSTISGGGLIAYSEANASYGANGGAVVETGTKKKKVVLLGTGWAGTSFLKNLNNSQYEVQIISPRNYFAFTPLLPSVTCGTVEARSVVEPIRNIGRKNVDTSYLEAECFKIDPASKKVYCRSKQGLSSNGKKEFSVDYDYLVIATGAQSNTFNIPGVEENCHFLKEVEDAQRIRKTVIDSFEKASLPELSDEERKRILHFVVVGGGPTGVEFAAELHDFVTEDLVSLYPRAKGSVRITLLEAADHILTMFDKRITEFAEEKFSRDGIDVKLGSMVTKVNEKDISAKTKGGEVSSIPYGMIVWSTGIGTRPVIKDFMKQIGQGNRRALATDEWLRVEGTDNIYALGDCATINQRKVMEDVSAIFSKADKDKSGTLTLKEFQEAMDDICVRYPQVELYLKSKRMRGIADLLKEAETDDVSKNNIELKIEEFKSALSQVDSQVKFLPATAQVAAQQGAYLAKCFDRMEECEKSPEGPIRMRGEGRHRFRPFRYRHLGQFAPLGGEQTAAQLPGDWVSIGHSSQWLWYSVYASKQVSWRTRVLVVSDWMRRFIFGRDSSSI | soluble
